Laboratory results reported in US20190119347A1 (HANMI PHARM, published 2019).
Bridge positions count the residues as written; N and C are the ends. Square brackets hold non-standard residues; d marks the D form. Ends that are not written are not given here. Aib = CC(C)(N)C(=O)O

Target: human glucagon receptor (human, UniProt P47871 26-477)
Test: cell-based or functional assay

Chain of human glucagon receptor (P47871 26-477): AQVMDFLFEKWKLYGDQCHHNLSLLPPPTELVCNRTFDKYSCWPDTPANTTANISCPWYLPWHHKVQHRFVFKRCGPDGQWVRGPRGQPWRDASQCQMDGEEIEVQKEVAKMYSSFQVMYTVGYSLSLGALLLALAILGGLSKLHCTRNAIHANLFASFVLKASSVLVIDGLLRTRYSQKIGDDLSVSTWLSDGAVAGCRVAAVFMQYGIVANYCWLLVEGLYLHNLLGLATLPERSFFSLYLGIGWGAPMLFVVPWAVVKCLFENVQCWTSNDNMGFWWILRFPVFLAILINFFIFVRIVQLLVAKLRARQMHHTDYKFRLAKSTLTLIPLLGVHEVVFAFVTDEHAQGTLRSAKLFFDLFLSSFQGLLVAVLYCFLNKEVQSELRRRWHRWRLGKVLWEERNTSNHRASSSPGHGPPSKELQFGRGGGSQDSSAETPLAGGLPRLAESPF

In vitro Activity (Relative Activity to SEQ ID NO: 1, %); cAMP assay, from EC50: 776%
Binder: Y[Aib]QGTFTSDYSKYLDERRAKEFVQWLMNTC (lactam 16-20) [glucagon derivative of SEQ ID NO: 37]
